Data published in the RNAGym collection of RNA variant scans (doi:10.1073/pnas.2313332121).
Variants at the floor of the assay were thinned out.

B1: TPR 5TU (parent)
chain: GGAUCUUCUCGAUCUAACAAAAAAGACAAAUCUGCCACAAAGCUUGAGAGCAUCUUCGGAUGCAGAGGCGGCAGCCUUCGGUGGCGCGAUAGCGCCAACGUUCUCAACUAUGACACGCAAAACGCGUGCUCCGUUGAAUGGAGUUUAUCAUG

Variants of: B1
Assay: polymerase ribozyme fitness, log enrichment relative to wild type (log ratio); higher = more active; in vitro selection for triplet polymerase activity
Method in brief: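 Mutant libraries of both subunits of a heterodimeric triplet polymerase ribozyme were PCR-built, transcribed, and selected once in triplicate, with frozen incubation at −7 °C and capture of gel-excised extended constructs on streptavidin beads before RT-PCR. Illumina sequencing of input and output libraries was filtered to genotypes with ≥10 input reads and ≥1 read per output. Fitness is the logarithm of genotype enrichment over wild-type enrichment, using inverse-variance-weighted replicate averages. The logarithm is base 2.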

Variant	polymerase ribozyme fitness (log ratio)
A22U U134A	-2.01
C54A A97U	-1.79
G59U G152C	-2.8
A24U C32A	-3.85
G42U C108U C125U A138U U148A	-4.13
C54U C95A G126U U148A	≤ -4.2
C93U U134A	-4.01
U44G U45G C54U C87A	≤ -4.2
U102C U148C	-3.19
A22G G59A A60C C85A G94A C105U G126A	-4.1
C8A A17G U55A C93A G126U G140A	≤ -4.2
A106G U146A	-0.139
C38U C93A A119C A142U	-3.54
A12G A20G A23U A89G C96U U111C G124C U130G G133C G140A	≤ -4.2
G46C U56A G84A G133C	-2.71
A41U G83C A110G G126A	≤ -4.2
U4G C54G C95G	-3.63
U4G C8A U31A U55A C87U U101C G133C	≤ -4.2
A40G A52C A66U C75G C79G A120C	≤ -4.2
A22C U61C G80A A119U C125A	-2.69
A24U U53A U55A C95U C99A	≤ -4.2

Variant	polymerase ribozyme fitness (log ratio)
A3G G84A A98U	-1.36
A22C A26U U33G G34A U55A A73U U77G G86A G143A	≤ -4.2
A22G A28G A52U G80A C93G U101C A113U G140U	≤ -4.2
A37U A52C A73U G86A C96A C108G G133A G141A	≤ -4.2
A47G C96U G124C	-1.06
A29C A89G C95G U139C G140A G141U A142C	≤ -4.2
A60C A73G C96U U101G	-3.45
C43G G50C C85A C96A C108U G124A	≤ -4.2
A52G G71U	-2.58
U33G U56A U90A U101G C108G A119U U135C G136A	≤ -4.2
A16U A19U A40G	≤ -4.2
A12G A30U U146G	-3.66
G25C C76U C79G C93A C118U	≤ -4.2
U31A C32A G59A C93G A113U A150C	≤ -4.2
U15C A22C C85U U127C	-2
A22U G141A	2.05
G58A A142U	-0.199
G11A U15G A107G G141C U144C U145A G152A	≤ -4.2
C99G G126A	-0.619
A40C G88U C96U A122U U127G U148A A150U	≤ -4.2
A17C C99A	-0.000978

Variant	polymerase ribozyme fitness (log ratio)
G83A G141U G143A	≤ -4.2
A49G G50A C54A A66G U82A C108U C125A	≤ -4.2
A16U C125A	-2.06
U53G G94C A115U	-3.49
G86U G143A	-2.53
A28U U53A G81C C95G A107U U139A	≤ -4.2
C14U A17U A19C U44A G68A A73G G86U C96U C149G	≤ -4.2
G50U G94A A113G A147C	-3.89
A91C G126A	-4.03
U6G A19G A30U A119G	≤ -4.2
C76A C85U U145C	-0.371
A19C U56A	0.406
A26G A89U	-4.16
C38U A41U G94A	-1.15
U45A C72A G86U C99U	≤ -4.2
G86A C149A	≤ -4.2
U13G C38A C93G C116G A122G	≤ -4.2
C32G A37G G83U C87G A89G G133C	≤ -4.2
G58C G83C G117C	-0.409
A89U G143U	-2.38
A47C A122U	-1.45

Variant	polymerase ribozyme fitness (log ratio)
A23G C38G C95U C114G	-3.85
A115G C116A U127G	≤ -4.2
C76A C96U G140U	-3.67
U82C C95U C131G A142C	≤ -4.2
G46A C63G G67C C85U	≤ -4.2
A24U C27G G50C C54G A64C G84A G86C C118G C149U	≤ -4.2
G86C U101G	-2.8
G59C C95U A110G C116A	-3.2
U56A G88U U104C G124U	≤ -4.2
A39U A122G U145G	-2.48
A19C G83U C87U	-0.445
G42U U45A U56A G83A A121U	≤ -4.2
U6C C54U C76U	-2.15
U55A A73G	-0.446
G11C A40C G83U A119G	-2.65
C57G A91G	-4.08
A39U C51U U61G A89U	≤ -4.2
A23G A24U C27G U55A G92U	-3.98
C36U C54A G58A G70A G84A C95A A115U G143U	≤ -4.2
C10G C35U	-3.4
